Assays:
Assay in all cases: cell_activity
[1] = test system: ssSRY1.2 TALEN left monomer (artificial); settings: pair with p4; Surveyor day 3, swine fibroblasts
[2] = test system: ssSRY1.3 TALEN left monomer (artificial); settings: pair with p6; Surveyor day 3, swine fibroblasts
[3] = test system: ssSRY1.1 TALEN left monomer (artificial); settings: pair with p2; Surveyor day 3, swine fibroblasts; 46.3% HDR with ssODN
[4] = test system: ssSRY1.2 TALEN right monomer (artificial); settings: pair with p3; Surveyor day 3, swine fibroblasts
[5] = test system: ssSRY1.1 TALEN right monomer (artificial); settings: pair with p1; Surveyor day 3, swine fibroblasts; 46.3% HDR with ssODN
[6] = test system: ssSRY1.3 TALEN right monomer (artificial); settings: pair with p5; Surveyor day 3, swine fibroblasts

AGAGAACCCTCAAATG (double strand) [ssSRY1.2 left half-site]
activity [1]: 35 % NHEJ

CAGCAAGTGGCTGGGA (double strand) [ssSRY1.3 left half-site]
activity [2]: 16.2 % NHEJ

GAACGCTTTCATTGTG (double strand) [ssSRY1.1 left half-site]
activity [3]: 30 % NHEJ

GCAAGTGGCTGGGATGC (double strand) [ssSRY1.2 right half-site]
activity [4]: 35 % NHEJ

GGAGAAAAGTGGCTCT (double strand) [ssSRY1.1 right half-site]
activity [5]: 30 % NHEJ

TTACAGAAGCCGAAA (double strand) [ssSRY1.3 right half-site]
activity [6]: 16.2 % NHEJ

Source: patent publication US20170099813
